Values belong to the binder of their own block, whether it stands above or below them. No end group written: not given here. *: point of attachment. FITC = O=C1OC2(c3ccc(O)cc3Oc3cc(O)ccc32)c2ccc(NC(=S)*)cc21
Legend:
Settings in all cases: both partners purified
[1] = target: T1, murine Importin α with the Importin β binding domain (IBB) deleted, Impα(70–529) (murine, UniProt P52293 70-529); test: fluorescence polarisation; direct titration: serial dilutions of Impα into 100 nM FITC-labeled peptide; FP buffer (20 mM Tris pH 7.7, 125 mM NaCl, 1 mM EDTA, 2 mM TCEP, 5% sucrose, 10 mM NaN3); room temperature (legend: 25 °C); apparent dissociation constants, single-site fit
[2] = target: Impα(70–529)(W184R/W231R) (murine, UniProt P52293 70-529, W184R | W231R); test: as above
[3] = target: T1, murine Importin α with the Importin β …; test: fluorescence polarisation; competition: serial dilutions of unlabeled peptide into 150 nM Impα(70–529) and 100 nM FITC-labeled FL-NLS peptide in FP buffer; fit to a competitive binding equation; apparent

Kd [1]: 108 nM
Kd [2]: 7400 nM
B1: FL-NLS: FITC-XRCC1 (241–276) (peptide)
peptide: {FITC}-SPKGKRKLDLNQEEKKTPSKPPAQLSPSVPKRPKLP
notes: human XRCC1 residues 241-276, the bipartite NLS; also called Full XRCC1 NLS ligand; FITC-labeled bipartite XRCC1 NLS; source: synthetic peptide, bought: Genscript

Kd [1]: 2100 nM
Kd [2]: 690000 nM
B2: M2: XRCC1 (268-276)-G-Lys-FITC (peptide)
peptide: SVPKRPKLPGK(FITC)
notes: added G-Lys that carries the FITC label; also called major motif ligand; major motif peptide; source: synthetic peptide, bought: Genscript

Kd [3]: 604 nM
B3: NLS-E4: XRCC1(241–276)/(T257E/S259E/S266E/S268E) quadruple variant (peptide)
peptide: SPKGKRKLDLNQEEKKEPEKPPAQLEPEVPKRPKLP
notes: human XRCC1 residues 241-276 with four glutamate substitutions that mimic phosphorylation; also called NLS(T257E/S259E/S266E/S268E)

Source: article PMC4548243, “Nuclear Localization of the DNA Repair Scaffold XRCC1: Uncovering the Functional Role of a Bipartite NLS” (Scientific Reports, 2015)
